The record followed here is PMC10234635.

This assay deals with recombinant mouse CD47 antigen (mouse) (UniProt Q61735). Kind of assay: SPR. Background: Surface plasmon resonance follows binding to a sensor surface in real time, without labels.
Chain of UniProt Q61735 (Q61735 19-303): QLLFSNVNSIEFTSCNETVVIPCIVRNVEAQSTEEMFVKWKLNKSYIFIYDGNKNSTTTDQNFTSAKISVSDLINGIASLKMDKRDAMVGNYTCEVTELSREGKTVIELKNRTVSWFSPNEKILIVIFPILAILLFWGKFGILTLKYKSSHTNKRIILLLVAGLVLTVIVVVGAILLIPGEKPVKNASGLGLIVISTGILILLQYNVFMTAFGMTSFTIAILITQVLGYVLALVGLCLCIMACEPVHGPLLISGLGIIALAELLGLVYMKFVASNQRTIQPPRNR

B1: anti–CTLA-4×SIRPα heterodimer (bispecific antibody, V domains shown)
VH: QVKLEESGPGLVNPSQSLSLSCSVTGYSITSGYGWNWIRQFPGQKVEWMGFIYYEGSTYYNPSIKSRISITRDTSKNQFFLQVNSVTTEDTATYYCARQTGYFDYWGQGTMVTVSS
VL: DVMMTQSPSSMSVSAGEKATISCKSSQSLFNSNAKTNYLNWYMQKPGQSPKLLTYYASTRHTGVPDRFRGSGSGTDFTLTISSVQDEDQAFYYCQQWYDYPYTFGAGTKLEIK
In the case of B1, the fold lower affinity than its affinity to CTLA-4 turned out to be 10 fold and the fold reduction in affinity against SIRPα-Fc worked out at 5 fold.
